Experimental findings from patent publication US20170183640A1 (WISCONSIN ALUMNI RESEARCH FOUNDATION, published 2017) are described below.

Data set [1] deals with the molecule itself. Put plainly: ultracentrifugation, self-association (dimerization).
Data set [2] deals with the molecule itself. Put plainly: DSG crosslinking, SDS-PAGE (FIG. 7), self-association. The source says:
(§1) The crosslinking covalently traps Ref in oligomeric states. […] Cys11 is responsible for dimerization of the P1 Ref protein.
In order to determine the role of Cys11, a φW39 R11C variant was constructed and purified. […] The truncation variants' monomeric state was verified by analytical size exclusion (FIG. 9).

Data set [3] concerns the molecule itself. Put plainly: gel filtration (Superdex 200), self-association, Example 4. (In general: SEC sorts molecules by how far they enter the pores of the column.)
Data set [4] deals with the molecule itself. Kind of data set: DSG crosslinking, SDS-PAGE, self-association.
From the text: as §1
Upon amino acid sequence analysis of P1 WT and φW39 WT, we noticed that P1 Ref contains Cys11 while φW39 Ref contains Arg11.

B1: P1 wild type Ref (bacteriophage P1 full length Ref protein) (enzyme)
chain: MKTIEQKIEQCRKWQKAARERAIARQREKLADPVWRESQYQKMRDTLDRRIAKQKERPPASKTRKSAVKIKSRGLKGRTPTAEERRIANALGALPCIACYMHGVISNEVSLHHIAGRTAPGCHKKQLPLCRWHHQHAAPAEVREKYPWLVPVHADGVVGGKKEFTLLNKSEMELLADAYEMANIMH
notes: Full-length native protein purified from E. coli; The dimer is reported to be held by a Cys11 disulfide bond
Consider B1, for which the binding result in data set [1] is given as “binds”.

B2: φW39 R11C Ref (enzyme)
chain: MKTIEQKLEQCREWQKAARERAIARQREKLADPAWRESQYQKMRDSIDRRIAKQKERPPASKTRKSAVKIKSRGLKGRTPTAEERTIANALGTLPCIACYMHGVISEEVSLHHISGRTAPGCHKKQLPLCRWHHQHAAPAEVREKYPWLVPVHADGVVGGKKEFTLLNKSEMELLADAYEMANIMH
notes: Plasmid pEAW933; Full-length variant
With B2, the binding result in data set [2] was “binds”.

B3: φW39 wild type Ref (φW39 phage full length Ref protein) (enzyme)
chain: MKTIEQKLEQRREWQKAARERAIARQREKLADPAWRESQYQKMRDSIDRRIAKQKERPPASKTRKSAVKIKSRGLKGRTPTAEERTIANALGTLPCIACYMHGVISEEVSLHHISGRTAPGCHKKQLPLCRWHHQHAAPAEVREKYPWLVPVHADGVVGGKKEFTLLNKSEMELLADAYEMANIMH
notes: Full-length native protein
On to B3, for which, in data set [3], the “apparent molecular mass by gel filtration” value (“apparent molecular mass” below) is 35 kDa.

B4: φW39 ΔN21 Ref (enzyme)
chain: AIARQREKLADPAWRESQYQKMRDSIDRRIAKQKERPPASKTRKSAVKIKSRGLKGRTPTAEERTIANALGTLPCIACYMHGVISEEVSLHHISGRTAPGCHKKQLPLCRWHHQHAAPAEVREKYPWLVPVHADGVVGGKKEFTLLNKSEMELLADAYEMANIMH
notes: Plasmid pEAW886; The construct starts with a Met codon from the NdeI site
With B4, in data set [3], the “apparent molecular mass” value turned out to be 33.6 kDa.

B5: φW39 ΔN47 Ref (enzyme)
chain: DRRIAKQKERPPASKTRKSAVKIKSRGLKGRTPTAEERTIANALGTLPCIACYMHGVISEEVSLHHISGRTAPGCHKKQLPLCRWHHQHAAPAEVREKYPWLVPVHADGVVGGKKEFTLLNKSEMELLADAYEMANIMH
notes: Plasmid pEAW865; The construct starts with a Met codon from the NdeI site
Take B5: in data set [3], the “apparent molecular mass” value came to 27.6 kDa.

B6: P1 ΔN76 Ref (enzyme)
chain: GRTPTAEERRIANALGALPCIACYMHGVISNEVSLHHIAGRTAPGCHKKQLPLCRWHHQHAAPAEVREKYPWLVPVHADGVVGGKKEFTLLNKSEMELLADAYEMANIMH
notes: Purified as in Gruenig et al 2011; The range 77-186 is derived from the name ΔN76
As to B6, in data set [4], the binding result is “no binding”.
